Results published in patent US9850520B2, “Electrochemical detection of proteases using AC voltammetry on nanoelectrode arrays” (Kansas State University Research Foundation, priority 2013, dated 2017).

Molecular target: T1, H2N—(CH2)4—CO-(SEQ ID NO:1)-NH—CH2-Fc (Homo sapiens, UniProt Q99538)
T1 construct: purchased R&D Systems Inc. (Minneapolis, Minn.)
T1 sequence (Q99538 18-323 limits assumed): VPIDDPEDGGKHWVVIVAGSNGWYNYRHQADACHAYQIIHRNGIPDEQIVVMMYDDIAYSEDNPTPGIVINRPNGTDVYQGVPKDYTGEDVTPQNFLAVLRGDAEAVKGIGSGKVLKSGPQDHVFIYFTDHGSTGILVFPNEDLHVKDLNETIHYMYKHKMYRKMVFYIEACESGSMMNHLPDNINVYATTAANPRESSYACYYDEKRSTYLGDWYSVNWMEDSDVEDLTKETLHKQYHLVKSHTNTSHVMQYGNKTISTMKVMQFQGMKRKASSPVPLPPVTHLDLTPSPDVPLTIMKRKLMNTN
Experiment: ACV proteolysis kinetics of legumain on Fc-tetrapeptide immobilized on VACNF NEA
Assay type: biochemical
Excerpt: In the protease study, a tetrapeptide H2N—(CH2)4—CO-(SEQ ID NO:1)-NH—CH2-Fc is covalently attached to the exposed tip of a VACNF NEA as shown in FIG. 2. Fc provides reliable redox signals at 0.25 V vs. Ag/AgCl (3M KCl) in ACV measurements. As shown in later sections, the unique structure of VACNF NEA enables the enhanced ACV signal at over 1750 Hz AC frequency. Upon being supplied with legumain (a cancer related protease), the peptide is cleaved at the site between Asn and Leu. As a result, the Fc moiety is released from the electrode surface into bulk solution, causing the redox signal to decrease. The kinetic of the enzymatic reaction at the electrode surface can be monitored by continuously repeated ACV measurements. The advantage of this method is that the Fc label provides a characteristic redox signal which can be easily separated from the nonFaradaic background and other redox signals. However, the mechanism becomes complicated for enzymes requiring much longer peptide sequences for specific recognition. The Fc signal involves electron transfer between Fc molecule and the electrode surface, which is highly sensitive to the Fc surface distance. This may vary in a large range depending on the molecular packing of the long peptides on the electrode surface.
For protease analysis, the tetrapeptide H2N—(CH2)4—CO-(SEQ ID NO:1)-NHCH2-Fc was covalently linked to the VACNF NEA by forming amide bond facilitated by EDC and sulfo-NHS. In order to stabilize the electronic signal, the electrode surface was reacted with 6-amino-1-hexanol to fill the remaining —COOH sites. […]
The electrochemical measurements were performed in a TEFLON cell with a total volume of 250 μL for legumain experiments and 120 μL for kinase/phosphatase experiments. […] The average AC current was measured as the potential was swept from −0.05 to +0.65 V at 10 mV/s scan rate using a staircase waveform. […]
The change in peak current (ip,acv) during continuously repeated ACV measurements with Fc-linked tetrapeptide immobilized on a VACNF NEA was measured. […]

[1] = Example 4, [E0]=80.1 nM legumain

B1: legumain: Recombinant human legumain/asparaginyl endopeptidase (molecular weight 49 kDa) from R&D Systems (protein, UniProt Q99538 18-323, looked up)
Legumain: T1 sequence (Q99538 18-323 limits assumed)
Example 1, [E0]=773 nM legumain, f 1750 Hz, V0 150 mV
  time constant of exponential decay: 1076 s
[1]
  slope of reaction rate vi vs Γsurf: 0.00063 s⁻¹
  time constant of exponential decay: 1101 s
